Results published in publication doi:10.1101/2020.11.17.386581 (bioRxiv, 2020).

Target: recombinant human tau 2N4R (as used in SPR) (human, UniProt P10636-8 1-441)
Assay: SPR

B1: Recombinant human SORL1 aa 82-753 protein (domain or fragment, UniProt Q92673 82-753, looked up)
chain: SAALQPEPIKVYGQVSLNDSHNQMVVHWAGEKSNVIVALARDSLALARPKSSDVYVSYDYGKSFKKISDKLNFGLGNRSEAVIAQFYHSPADNKRYIFADAYAQYLWITFDFCNTLQGFSIPFRAADLLLHSKASNLLLGFDRSHPNKQLWKSDDFGQTWIMIQEHVKSFSWGIDPYDKPNTIYIERHEPSGYSTVFRSTDFFQSRENQEVILEEVRDFQLRDKYMFATKVVHLLGSEQQSSVQLWVSFGRKPMRAAQFVTRHPINEYYIADASEDQVFVCVSHSNNRTNLYISEAEGLKFSLSLENVLYYSPGGAGSDTLVRYFANEPFADFHRVEGLQGVYIATLINGSMNEENMRSVITFDKGGTWEFLQAPAFTGYGEKINCELSQGCSLHLAQRLSQLLNLQLRRMPILSKESAPGLIIATGSVGKNLASKTNVYISSSAGARWREALPGPHYYTWGDHGGIITAIAQGMETNELKYSTNEGETWKTFIFSEKPVFVYGLLTEPGEKSTVFTIFGSNKENVHSWLILQVNATDALGVPCTENDYKLWSPSDERGNECLLGHKTVFKRRTPHATCFNGEDFDRPVVVSNCSCTREDYECDFGFKMSEDLSLEVCVPDPEFSGKSYSPPVPCPVGSTYRRTRGYRKISGDTCSGGDVEARLEGELVPCP
Kd: 41 ± 9 nM
